Data taken from article PMC4822050.

Legend:
SRA-Spacer = molecular target: T1, SRA-Spacer (human, UniProt Q96T88 414-674); assay: FP; DNA length series; ITC: 10 mM HEPES pH 8.0, 100 mM NaCl, 18 C; EMSA: 20 mM HEPES pH 7.5, 100 mM NaCl, 8% glycerol, 1 mM DTT, on ice; pull-down: 20 mM HEPES-NaOH pH 8.0, 100 mM NaC
T1 sequence: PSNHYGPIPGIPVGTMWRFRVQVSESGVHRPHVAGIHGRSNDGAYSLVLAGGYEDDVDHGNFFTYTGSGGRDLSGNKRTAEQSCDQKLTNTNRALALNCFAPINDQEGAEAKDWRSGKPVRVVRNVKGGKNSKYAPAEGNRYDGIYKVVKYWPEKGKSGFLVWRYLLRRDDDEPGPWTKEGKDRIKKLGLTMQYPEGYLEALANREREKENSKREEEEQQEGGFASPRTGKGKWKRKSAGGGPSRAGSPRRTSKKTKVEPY

UHRF1 deltaTTD = molecular target: T2, UHRF1 deltaTTD (human, UniProt Q96T88 1-793, del134-285); assay: FP; ITC: 10 mM HEPES pH 8.0, 100 mM NaCl, 18 C; EMSA: 20 mM HEPES pH 7.5, 100 mM NaCl, 8% glycerol, 1 mM DTT, on ice; pull-down: 20 mM HEPES-NaOH pH 8.0, 100 mM NaC
T2 sequence: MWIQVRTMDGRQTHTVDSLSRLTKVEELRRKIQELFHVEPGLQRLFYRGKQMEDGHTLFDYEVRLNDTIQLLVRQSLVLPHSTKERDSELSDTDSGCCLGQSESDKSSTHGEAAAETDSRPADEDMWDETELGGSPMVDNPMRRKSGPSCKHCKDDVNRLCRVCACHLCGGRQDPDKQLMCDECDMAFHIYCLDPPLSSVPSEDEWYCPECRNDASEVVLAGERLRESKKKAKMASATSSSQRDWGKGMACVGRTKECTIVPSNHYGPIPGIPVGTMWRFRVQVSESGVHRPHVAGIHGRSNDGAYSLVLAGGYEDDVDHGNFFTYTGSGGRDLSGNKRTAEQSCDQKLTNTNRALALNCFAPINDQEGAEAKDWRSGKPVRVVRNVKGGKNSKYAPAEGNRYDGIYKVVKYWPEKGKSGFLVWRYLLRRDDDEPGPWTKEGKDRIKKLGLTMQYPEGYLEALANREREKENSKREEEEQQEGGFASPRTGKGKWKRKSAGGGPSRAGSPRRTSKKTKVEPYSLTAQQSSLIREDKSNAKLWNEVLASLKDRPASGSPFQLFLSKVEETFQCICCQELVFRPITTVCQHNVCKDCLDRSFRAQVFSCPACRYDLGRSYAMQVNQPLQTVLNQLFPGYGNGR

B1: FAM-12bp-HM-DNA (dsDNA)
DNA 1: CCATGCGCTGAC
DNA 2: GTCAGCGCATGG
modifications: 5-methyl-dC at position 6 of strand 2 (GTCAGXGCATGG)
- Kd (SRA-Spacer): 340 ± 90 nM
- Kd (UHRF1 deltaTTD): 490 ± 80 nM
